Data set [1] relates to HeLa Kyoto. Nature of the data set: solubility in G1/S (NP-40 vs SDS abundance) (log2 ratio); higher = more soluble. The note with it: cell cycle stage: G1/S.
The test system of data set [2] is HeLa Kyoto. Nature of the data set: solubility change mitosis vs G1/S (difference of NP-40 vs SDS log2 ratios) (log2 ratio difference); higher = more soluble in mitosis.

The text below walks through data of the supplement of paper PMC5998384.
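Throughout, for solubility change mitosis vs G1/S (difference of NP-40 vs SDS log2 ratios): synchronized HeLa Kyoto cells (double thymidine block for G1/S, nocodazole release for mitosis), protein amounts in NP-40 versus SDS lysates quantified by mass spectrometry, three biological replicates.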
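Throughout, for solubility in G1/S (NP-40 vs SDS abundance): HeLa Kyoto cells arrested at G1/S by double thymidine block, proteins quantified by TMT10plex mass spectrometry in mild NP-40 versus SDS extracts, three biological replicates.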

Take “MVTNKMTAAFRNPSGKQVATDKVAEKLSSTLSWVKNTVSHTVSQMASQVASPSTSLHTTSSSTTLSTPALSPSSPSQLSPDDLELLAKLEEQNRLLETDSKSLRSVNGSRRNSGSSLVSSSSASSNLSHLEEDSWILWGRIVNEWEDVRKKKEKQVKELVHKGIPHHFRAIVWQLLCSAQSMPIKDQYSELLKMTSPCEKLIRRDIARTYPEHNFFKEKDSLGQEVLFNVMKAYSLVDREVGYCQGSAFIVGLLLMQMPEEEAFCVFVKLMQDYRLRELFKPSMAELGLCMYQFECMIQEHLPELFVHFQSQSFHTSMYASSWFLTIFLTTFPLPIATRIFDIFMSEGLEIVFRVGLALLQMNQAELMQLDMEGMLQHFQKVIPHQFDGVPDKLIQAAYQVKYNSKKMKKLEKEYTTIKTKEMEEQVEIKRLRTENRLLKQRIETLEKHKCSSNYNEDFVLQLEKELVQARLSEAESQCALKEMQDKVLDIEKRNNSLPDENNIARLQEELIAVKLREAEAIMGLKELRQQVKDLEEHWQRHLARTTGRWKDPPKKNAMNELQDELMTIRLREAETQAEIREIKQRMMEMETQNQINSNHLRRAEQEVISLQEKVQYLSAQNKGLLTQLSEAKRKQAEIECKNKEEVMAVRLREADSIAAVAELRQHIAELEIQKEEGKLQGQLNKSDSNQYIGELKDQIAELNHELRCLKGQRGFSGQPPFDGIHIVNHLIGDDESFHSSDEDFIDNSLQETGVGFPLHGKSGSMSLDPAVADGSESETEDSVLETRESNQVVQKERPPRRRESYSTTV [EVI5]”: the “solubility in G1/S (log2)” value with HeLa Kyoto [1] came out at 0.129. In the data set with HeLa Kyoto [2], the “solubility change mitosis (log2)” value is -0.288.
Regarding “MWCIVLFSLLAWVYAEPTMYGEILSPNYPQAYPSEVEKSWDIEVPEGYGIHLYFTHLDIELSENCAYDSVQIISGDTEEGRLCGQRSSNNPHSPIVEEFQVPYNKLQVIFKSDFSNEERFTGFAAYYVATDINECTDFVDVPCSHFCNNFIGGYFCSCPPEYFLHDDMKNCGVNCSGDVFTALIGEIASPNYPKPYPENSRCEYQIRLEKGFQVVVTLRREDFDVEAADSAGNCLDSLVFVAGDRQFGPYCGHGFPGPLNIETKSNALDIIFQTDLTGQKKGWKLRYHGDPMPCPKEDTPNSVWEPAKAKYVFRDVVQITCLDGFEVVEGRVGATSFYSTCQSNGKWSNSKLKCQPVDCGIPESIENGKVEDPESTLFGSVIRYTCEEPYYYMENGGGGEYHCAGNGSWVNEVLGPELPKCVPVCGVPREPFEEKQRIIGGSDADIKNFPWQVFFDNPWAGGALINEYWVLTAAHVVEGNREPTMYVGSTSVQTSRLAKSKMLTPEHVFIHPGWKLLEVPEGRTNFDNDIALVRLKDPVKMGPTVSPICLPGTSSDYNLMDGDLGLISGWGRTEKRDRAVRLKAARLPVAPLRKCKEVKVEKPTADAEAYVFTPNMICAGGEKGMDSCKGDSGGAFAVQDPNDKTKFYAAGLVSWGPQCGTYGLYTRVKNYVDWIMKTMQENSTPRED [C1S]”, the “solubility in G1/S (log2)” value in the data set on HeLa Kyoto [1] stood at 0.0236. Moreover, the “solubility change mitosis (log2)” value with HeLa Kyoto [2] was -0.029.
The matching figures for “MWEKMETKTIVYDLDTSGGLMEQIQALLAPPKTDEAEKRSRKPEKEPRRSGRATNHDSCDSCKEGGDLLCCDHCPAAFHLQCCNPPLSEEMLPPGEWMCHRCTVRRKKREQKKELGHVNGLVDKSGKRTTSPSSDTDLLDRSASKTELKAIAHARILERRASRPGTPTSSASTETPTSEQNDVDEDIIDVDEEPVAAEPDYVQPQLRRPFELLIAAAMERNPTQFQLPNELTCTTALPGSSKRRRKEETTGKNVKKTQHELDHNGLVPLPVKVCFTCNRSCRVAPLIQCDYCPLLFHMDCLEPPLTAMPLGRWMCPNHIEHVVLNQKNMTLSNRCQVFDRFQDTVSQHVVKVDFLNRIHKKHPPNRRVLQSVKRRSLKVPDAIKSQYQFPPPLIAPAAIRDGELICNGIPEESQMHLLNSEHLATQAEQQEWLCSVVALQCSILKHLSAKQMPSHWDSEQTEKADIKPVIVTDSSVTTSLQTADKTPTPSHYPLSCPSGISTQNSLSCSPPHQSPALEDIGCSSCAEKSKKTPCGTANGPVNTEVKANGPHLYSSPTDSTDPRRLPGANTPLPGLSHRQGWPRPLTPPAAGGLQNHTVGIIVKTENATGPSSCPQRSLVPVPSLPPSIPSSCASIENTSTLQRKTVQSQIGPPLTDSRPLGSPPNATRVLTPPQAAGDGILATTANQRFSSPAPSSDGKVSPGTLSIGSALTVPSFPANSTAMVDLTNSLRAFMDVNGEIEINMLDEKLIKFLALQRIHQLFPSRVQPSPGSVGTHQLASGGHHIEVQRKEVQARAVFYPLLGLGGAVNMCYRTLYIGTGADMDVCLTNYGHCNYVSGKHACIFYDENTKHYELLNYSEHGTTVDNVLYSCDFSEKTPPTPPSSIVAKVQSVIRRRRHQKQDEEPSEEAAMMSSQAQGPQRRPCNCKASSSSLIGGSGAGWEGTALLHHGSYIKLGCLQFVFSITEFATKQPKGDASLLQDGVLAEKLSLKPHQGPVLRSNSVP [PHF12]”: -0.326 and 0.237.
The matching figures for “MWGFRLLRSPPLLLLLPQLGIGNASSCSQARTMNPGGSGGARCSLSAEVRRRQCLQLSTVPGADPQRSNELLLLAAAGEGLERQDLPGDPAKEEPQPPPQHHVLYFPGDVQNYHEIMTRHPENYQWENWSLENVATILAHRFPNSYIWVIKCSRMHLHKFSCYDNFVKSNMFGAPEHNTDFGAFKHLYMLLVNAFNLSQNSLSKKSLNVWNKDSIASNCRSSPSHTTNGCQGEKVRTCEKSDESAMSFYPPSLNDASFTLIGFSKGCVVLNQLLFELKEAKKDKNIDAFIKSIRTMYWLDGGHSGGSNTWVTYPEVLKEFAQTGIIVHTHVTPYQVRDPMRSWIGKEHKKFVQILGDLGMQVTSQIHFTKEAPSIENHFRVHEVF [C2ORF69]”: 0.0592 and 0.0615.
The corresponding values for “MWSLTASEGESTTAHFFLGAGDEGLGTRGIGMRPEESDSELLEDEEDEVPPEPQIIVGICAMTKKSKSKPMTQILERLCRFDYLTVVILGEDVILNEPVENWPSCHCLISFHSKGFPLDKAVAYSKLRNPFLINDLAMQYYIQDRREVYRILQEEGIDLPRYAVLNRDPARPEECNLIEGEDQVEVNGAVFPKPFVEKPVSAEDHNVYIYYPSSAGGGSQRLFRKIGSRSSVYSPESSVRKTGSYIYEEFMPTDGTDVKVYTVGPDYAHAEARKSPALDGKVERDSEGKEIRYPVMLTAMEKLVARKVCVAFKQTVCGFDLLRANGHSFVCDVNGFSFVKNSMKYYDDCAKILGNTIMRELAPQFQIPWSIPTEAEDIPIVPTTSGTMMELRCVIAIIRHGDRTPKQKMKMEVKHPRFFALFEKHGGYKTGKLKLKRPEQLQEVLDITRLLLAELEKEPGGEIEEKTGKLEQLKSVLEMYGHFSGINRKVQLTYYPHGVKASNEGQDPQRETLAPSLLLVLKWGGELTPAGRVQAEELGRAFRCMYPGGQGDYAGFPGCGLLRLHSTFRHDLKIYASDEGRVQMTAAAFAKGLLALEGELTPILVQMVKSANMNGLLDSDGDSLSSCQHRVKARLHHILQQDAPFGPEDYDQLAPTRSTSLLNSMTIIQNPVKVCDQVFALIENLTHQIRERMQDPRSVDLQLYHSETLELMLQRWSKLERDFRQKSGRYDISKIPDIYDCVKYDVQHNGSLGLQGTAELLRLSKALADVVIPQEYGISREEKLEIAVGFCLPLLRKILLDLQRTHEDESVNKLHPLCYLRYSRGVLSPGRHVRTRLYFTSESHVHSLLSVFRYGGLLDETQDAQWQRALDYLSAISELNYMTQIVIMLYEDNTQDPLSEERFHVELHFSPGVKGVEEEGSAPAGCGFRPASSENEEMKTNQGSMENLCPGKASDEPDRALQTSPQPPEGPGLPRRSPLIRNRKAGSMEVLSETSSSRPGGYRLFSSSRPPTEMKQSGLGSQCTGLFSTTVLGGSSSAPNLQDYARSHGKKLPPASLKHRDELLFVPAVKRFSVSFAKHPTNGFEGCSMVPTIYPLETLHNALSLRQVSEFLSRVCQRHTDAQAQASAALFDSMHSSQASDNPFSPPRTLHSPPLQLQQRSEKPPWYSSGPSSTVSSAGPSSPTTVDGNSQFGFSDQPSLNSHVAEEHQGLGLLQETPGSGAQELSIEGEQELFEPNQSPQVPPMETSQPYEEVSQPCQEVPDISQPCQDISEALSQPCQKVPDISQQCQENHDNGNHTCQEVPHISQPCQKSSQLCQKVSEEVCQLCLENSEEVSQPCQGVSVEVGKLVHKFHVGVGSLVQETLVEVGSPAEEIPEEVIQPYQEFSVEVGRLAQETSAINLLSQGIPEIDKPSQEFPEEIDLQAQEVPEEIN [PPIP5K1]” are -0.000791 and -0.212.
